Results: article PMC4661472

Experiments:
[1] = molecular target: tapasin (human), wild type, in HeLa cells (UniProt O15533); experiment: co-immunoprecipitation with immunoblot densitometry; details: transient transfection of HeLa cells; IP via C-terminal c-Myc tag of TMD0TAP1; three independent experiments
[2] = molecular target: TMD0^TAP1 L68C single-cysteine mutant (M553) (human); experiment: cross-linking; crude membranes of M553 cells (tapasin-negative) transfected with single-Cys TMD0^TAP1 without tapasin; 1 mM Cu2+(phenanthroline)3, 10 min, 37 °C; non-reducing SDS-PAGE and immunoblot
[3] = molecular target: TMD0^TAP1 V67C single-cysteine mutant (M553) (human); experiment: as above
[4] = molecular target: TMD0^TAP1 W69C single-cysteine mutant (M553) (human); experiment: as above
[5] = molecular target: TMD0^TAP1 W33C single-cysteine mutant (M553) (human); experiment: as above
[6] = molecular target: TMD0^TAP1 L107C single-cysteine mutant (M553) (human); experiment: as above
[7] = molecular target: TMD0^TAP1 L70C single-cysteine mutant (M553) (human); experiment: as above
[8] = molecular target: TMD0^TAP1 V34C single-cysteine mutant (M553) (human); experiment: as above

UniProt O15533, sequence (O15533 21-448): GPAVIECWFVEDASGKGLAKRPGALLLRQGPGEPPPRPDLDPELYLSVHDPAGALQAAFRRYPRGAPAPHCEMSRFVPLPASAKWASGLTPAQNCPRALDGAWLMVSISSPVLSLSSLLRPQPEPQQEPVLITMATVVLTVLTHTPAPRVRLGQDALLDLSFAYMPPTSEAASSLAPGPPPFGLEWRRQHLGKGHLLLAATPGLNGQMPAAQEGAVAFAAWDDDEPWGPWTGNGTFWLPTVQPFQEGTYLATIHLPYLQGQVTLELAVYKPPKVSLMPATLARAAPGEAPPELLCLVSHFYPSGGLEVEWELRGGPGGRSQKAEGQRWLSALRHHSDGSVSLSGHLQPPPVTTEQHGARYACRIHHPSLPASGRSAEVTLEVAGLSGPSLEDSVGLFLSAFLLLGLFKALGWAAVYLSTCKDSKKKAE

Row | response [1] [%] | Substance | also measured
1 | 86 | TMD0^TAP1, parent of the single-cysteine mutants (Cys-less TAP background) P149C | 
2 | 0 | TMD0^TAP1, parent of the single-cysteine mutants (Cys-less TAP background) D32C | 
3 | 22 | TMD0^TAP1, parent of the single-cysteine mutants (Cys-less TAP background) A31C | 
4 | 81 | TMD0^TAP1, parent of the single-cysteine mutants (Cys-less TAP background) W69C | 

More lines, now with the values behind:

Row | Substance | response [1] [%] | also measured
5 | TMD0^TAP1, parent of the single-cysteine mutants (Cys-less TAP background) W33C | 9 | 
6 | TMD0^TAP1 L68C single-cysteine mutant (M553) (domain or fragment) |  | stoichiometry N [2]: 2
7 | TMD0^TAP1 V67C single-cysteine mutant (M553) (domain or fragment) |  | stoichiometry N [3]: 2
8 | TMD0^TAP1, parent of the single-cysteine mutants (Cys-less TAP background) L148C | 12 | 
9 | TMD0^TAP1, parent of the single-cysteine mutants (Cys-less TAP background) L105C | 26 | 
10 | TMD0^TAP1, parent of the single-cysteine mutants (Cys-less TAP background) L107C | 46 | 
11 | TMD0^TAP1, parent of the single-cysteine mutants (Cys-less TAP background) L70C | 27 | 
12 | TMD0^TAP1 W69C single-cysteine mutant (M553) (domain or fragment) |  | stoichiometry N [4]: 2
13 | TMD0^TAP1 W33C single-cysteine mutant (M553) (domain or fragment) |  | stoichiometry N [5]: 2
14 | TMD0^TAP1 L107C single-cysteine mutant (M553) (domain or fragment) |  | stoichiometry N [6]: 2
15 | TMD0^TAP1, parent of the single-cysteine mutants (Cys-less TAP background) A151C | 47 | 
16 | TMD0^TAP1, parent of the single-cysteine mutants (Cys-less TAP background) P108C | 29 | 
17 | TMD0^TAP1, parent of the single-cysteine mutants (Cys-less TAP background) L68C | 51 | 
18 | TMD0^TAP1 L70C single-cysteine mutant (M553) (domain or fragment) |  | stoichiometry N [7]: 2
19 | TMD0^TAP1, parent of the single-cysteine mutants (Cys-less TAP background) V67C | 19 | 
20 | TMD0^TAP1, parent of the single-cysteine mutants (Cys-less TAP background) V34C | 17 | 
21 | TMD0^TAP1 V34C single-cysteine mutant (M553) (domain or fragment) |  | stoichiometry N [8]: 2
22 | TMD0^TAP1, parent of the single-cysteine mutants (Cys-less TAP background) A150C | 25 | 
23 | TMD0^TAP1, parent of the single-cysteine mutants (Cys-less TAP background) A106C | 42 | 
